Series [1] deals with HeLa Kyoto. As to the kind of experiment: solubility in G1/S (NP-40 vs SDS abundance) (log2 ratio); higher = more soluble. The note with it: cell cycle stage: G1/S.
For series [2], the system named is HeLa Kyoto. As to the kind of experiment: melting temperature (median over replicates), in situ; higher = more thermally stable.
In series [3] the test system is HeLa Kyoto. As to the kind of experiment: solubility change mitosis vs G1/S (difference of NP-40 vs SDS log2 ratios) (log2 ratio difference); higher = more soluble in mitosis.
For series [4], the system named is HeLa Kyoto. In words: thermal stability score vs G1/S (z-score of summed log2 fold changes over temperatures); higher = more thermally stable than in G1/S.
Setting [5] is: cell cycle stage: early G1 (4.5 h after nocodazole release).
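For melting temperature (median over replicates), in situ in this document: HeLa Kyoto cells synchronized by double thymidine or nocodazole block, proteins quantified by TMT10plex mass spectrometry, three independent biological replicates.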
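For solubility change mitosis vs G1/S (difference of NP-40 vs SDS log2 ratios) in this document: synchronized HeLa Kyoto cells (double thymidine block for G1/S, nocodazole release for mitosis), protein amounts in NP-40 versus SDS lysates quantified by mass spectrometry, three biological replicates.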
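For solubility in G1/S (NP-40 vs SDS abundance) in this document: HeLa Kyoto cells arrested at G1/S by double thymidine block, proteins quantified by TMT10plex mass spectrometry in mild NP-40 versus SDS extracts, three biological replicates.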
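For thermal stability score vs G1/S (z-score of summed log2 fold changes over temperatures) in this document: synchronized HeLa Kyoto cells, proteins quantified by TMT10plex mass spectrometry, three biological replicates, mitosis taken 0.5 h after nocodazole release, G1/S directly after double thymidine block.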

Take “MNRTKGDEEEYWNSSKFKAFTFDDEDDELSQLKESKRAVNSLRDFVDDDDDDDLERVSWSGEPVGSISWSIRETAGNSGSTHEGREQLKSRNSFSSYAQLPKPTSTYSLSSFFRGRTRPGSFQSLSDALSDTPAKSYAPELGRPKGEYRDYSNDWSPSDTVRRLRKGKVCSLERFRSLQDKLQLLEEAVSMHDGNVITAVLIFLKRTLSKEILFRELEVRQVALRHLIHFLKEIGDQKLLLDLFRFLDRTEELALSHYREHLNIQDPDKRKEFLKTCVGLPFSAEDSAHIQDHYTLLERQIIIEANDRHLESAGQTEIFRKHPRKASILNMPLVTTLFYSCFYHYTEAEGTFSSPVNLKKTFKIPDKQYVLTALAARAKLRAWNDVDALFTTKNWLGYTKKRAPIGFHRVVEILHKNNAPVQILQEYVNLVEDVDTKLNLATKFKCHDVVIDTYRDLKDRQQLLAYRSKVDKGSAEEEKIDALLSSSQIRWKN [VIPAS39]”: the “solubility in G1/S (log2)” value in series [1] is 0.111. For the same sequence, the results for the melting temperature in series [2] (cell cycle stage: G1/S) and in series [2] (cell cycle stage: mitosis) were 49.5 °C and 49.2 °C, respectively. In addition, the “solubility change mitosis (log2)” value in series [3] is -0.125. For the same sequence, the figures for the thermal stability score in series [4] (setting [5]) and in series [4] (cell cycle stage: mitosis) were 0.126 and 0.142, respectively.

With “MNSAEQTVTWLITLGVLESPKKTISDPEGFLQASLKDGVVLCRLLERLLPGTIEKVYPEPRSESECLSNIREFLRGCGASLRLELLFPPSQPPQHLVTTILLSASTFDANDLYQGQNFNKVLSSLVTLNKVTADIGLGSDSVCARPSSHRIKSFDSLGSQSLHTRTSKLFQGQYRSLDMTDNSNNQLVVRAKFNFQQTNEDELSFSKGDVIHVTRVEEGGWWEGTLNGRTGWFPSNYVREVKASEKPVSPKSGTLKSPPKGFDTTAINKSYYNVVLQNILETENEYSKELQTVLSTYLRPLQTSEKLSSANISYLMGNLEEICSFQQMLVQSLEECTKLPEAQQRVGGCFLNLMPQMKTLYLTYCANHPSAVNVLTEHSEELGEFMETKGASSPGILVLTTGLSKPFMRLDKYPTLLKELERHMEDYHTDRQDIQKSMAAFKNLSAQCQEVRKRKELELQILTEAIRNWEGDDIKTLGNVTYMSQVLIQCAGSEEKNERYLLLFPNVLLMLSASPRMSGFIYQGKLPTTGMTITKLEDSENHRNAFEISGSMIERILVSCNNQQDLQEWVEHLQKQTKVTSVGNPTIKPHSVPSHTLPSHPVTPSSKHADSKPAPLTPAYHTLPHPSHHGTPHTTINWGPLEPPKTPKPWSLSCLRPAPPLRPSAALCYKEDLSKSPKTMKKLLPKRKPERKPSDEEFASRKSTAALEEDAQILKVIEAYCTSAKTRQTLNSTWQGTDLMHNHVLADDDQPSLDSLGRRSSLSRLEPSDLSEDSDYDSIWTAHSYRMGSTSRKSCCSYISHQN [ARHGEF7]”, the “solubility in G1/S (log2)” value in series [1] is 0.105. Further, the melting temperature is 48.5 °C in series [2] (cell cycle stage: G1/S) and 49.6 °C in series [2] (cell cycle stage: mitosis). In series [3], the “solubility change mitosis (log2)” value was -0.0942. Further, the thermal stability score in series [4] (setting [5]) was found to be 0.815; in series [4] (cell cycle stage: mitosis) it was 1.6.

“MNSNVENLPPHIIRLVYKEVTTLTADPPDGIKVFPNEEDLTDLQVTIEGPEGTPYAGGLFRMKLLLGKDFPASPPKGYFLTKIFHPNVGANGEICVNVLKRDWTAELGIRHVLLTIKCLLIHPNPESALNEEAGRLLLENYEEYAARARLLTEIHGGAGGPSGRAEAGRALASGTEASSTDPGAPGGPGGAEGPMAKKHAGERDKKLAAKKKTDKKRALRRL [UBE2S]”: the “solubility in G1/S (log2)” value in series [1] came out at 0.347. The melting temperature in series [2] (cell cycle stage: G1/S) was 51 °C; in series [2] (cell cycle stage: mitosis) it was 50.9 °C. In addition, the “solubility change mitosis (log2)” value in series [3] was 0.0837. Further, the thermal stability score in series [4] (setting [5]) was 1.11; in series [4] (cell cycle stage: mitosis), 0.461.

On to “MNSSTSTMSEEPDALSVVNQLRDLAADPLNRRAIVQDQGCLPGLILFMDHPNPPVVHSALLALRYLAECRANREKMKGELGMMLSLQNVIQKTTTPGETKLLASEIYDILQSSNMADGDSFNEMNSRRRKAQFFLGTTNKRAKTVVLHIDGLDDTSRRNLCEEALLKIKGVISFTFQMAVQRCVVRIRSDLKAEALASAIASTKVMKAQQVVKSESGEEMLVPFQDTPVEVEQNTELPDYLPEDESPTKEQDKAVSRVGSHPEGGASWLSTAANFLSRSFYW [ARMC1]”, for which the “solubility in G1/S (log2)” value in series [1] stood at 0.386. Moreover, the melting temperature in series [2] (cell cycle stage: G1/S) stood at 50.6 °C; in series [2] (cell cycle stage: mitosis) it was 50.8 °C. Also, the “solubility change mitosis (log2)” value in series [3] was 0.0691. Besides, the thermal stability score in series [4] (setting [5]) amounted to 0.134; in series [4] (cell cycle stage: mitosis) it was 0.316.

Take “MNTAPSRPSPTRRDPYGFGDSRDSRRDRSPIRGSPRREPRDGRNGRDARDSRDIRDPRDLRDHRHSRDLRDHRDSRSVRDVRDVRDLRDFRDLRDSRDFRDQRDPMYDRYRDMRDSRDPMYRREGSYDRYLRMDDYCRRKDDSYFDRYRDSFDGRGPPGPESQSRAKERLKREERRREELYRQYFEEIQRRFDAERPVDCSVIVVNKQTKDYAESVGRKVRDLGMVVDLIFLNTEVSLSQALEDVSRGGSPFAIVITQQHQIHRSCTVNIMFGTPQEHRNMPQADAMVLVARNYERYKNECREKEREEIARQAAKMADEAILQERERGGPEEGVRGGHPPAIQSLINLLADNRYLTAEETDKIINYLRERKERLMRSSTDSLPGPISRQPLGATSGASLKTQPSSQPLQSGQVLPSATPTPSAPPTSQQELQAKILSLFNSGTVTANSSSASPSVAAGNTPNQNFSTAANSQPQQRSQASGNQPPSILGQGGSAQNMGPRPGAPSQGLFGQPSSRLAPASNMTSQRPVSSTGINFDNPSVQKALDTLIQSGPALSHLVSQTTAQMGQPQAPMGSYQRHY [NCOA5]”: the “solubility in G1/S (log2)” value in series [1] is -0.619. For the same sequence, the melting temperature in series [2] (cell cycle stage: G1/S) is 49.9 °C; in series [2] (cell cycle stage: mitosis), 49.1 °C. Also, the “solubility change mitosis (log2)” value in series [3] was determined as 0.489. For the same sequence, the figures for the thermal stability score in series [4] (setting [5]) and in series [4] (cell cycle stage: mitosis) were 0.658 and 1.68, respectively.

Source of the values: the supplement of paper PMC5998384.
